Test results from patent US6764680.

How the values were obtained:
[1] = target: rabbit antiserum against CTP37, rabbit # 4164; assay: competition immunoassay, peptide competitor against rabbit antiserum 4164; legend: ++ = ED 50 < 250 ng
[2] = target: rabbit antiserum against COMBINED LOOP + CTP37, rabbit # 4165; assay: competition immunoassay, peptide competitor against rabbit antiserum 4165; legend: ++ = ED 50 < 250 ng
[3] = target: rabbit antiserum against COMBINED LOOP + CTP37, rabbit # 4166; assay: competition immunoassay, peptide competitor against rabbit antiserum 4166; legend: ++ = ED 50 < 250 ng
[4] = target: rabbit antiserum against COMBINED LOOP + CTP37, rabbit # 4173; assay: competition immunoassay, peptide competitor against rabbit antiserum 4173; legend: ++ = ED 50 < 250 ng

Measured: ED50

CDDPRFQDSSSSKAPPPSLPS [hCG-CTP21 (residues 130-150 of the beta subunit of hCG)]
10 to 250 ng: [1] | [2] | [3] | [4]
